{"source": "the DeepSol protein solubility set"}
{"experiment": "soluble on expression in E. coli; label from the status in PepcDB or PDB records"}
{"sequence": "MIPQRIKELEAYKTEVTPASVRLSSNEFPYDFPEEIKQRALEELKKVPLNKYPDPEAKELKAVLADFFGVKEENLVLGNGSDELIYYLSIAIGELYIPVYIPVPTFPMYEISAKVLGRPLVKVQLDENFDIDLERSIELIEKEKPVLGYFAYPNNPTGNLFSRGKIEEIRNRGVFCVIDEAYYHYSGETFLEDALKREDTVVLRTLSKIGMASLRVGILIGKGEIVSEINKVRLPFNVTYPSQVMAKVLLTEGREFLMEKIQEVVKERERMYDEMKKIEGVEVFPSKANFLLFRTPYPAHEVYQELLKRDVLVRNVSYMEGLQKCLRVSVGKPEENNKFLEALEESIKSLSSSL", "soluble on expression in E. coli": "soluble"}
{"sequence": "MIQDVIEKKLSDEFQPEFLKVINESDMHNVPRGSESHFKVTVVSERFAGLRPVARHRLVNQTLADELANHIHALAIHTYTTQEWQQMNQESPESPMCLGGSRKSAQ", "soluble on expression in E. coli": "not soluble"}
{"sequence": "MIQIVRDNFPGLETAEQLEDYKKTVIKNIERKTALFTKSDNGNIVGVLIFSYYSKCLSCMAVHPDYRKMGIGYAMVKKMIDLFPKDMDISVTTFREGDLKGVAPRAPYKKIGFLEDEFVEEFNYPHQKFIFRNRP", "soluble on expression in E. coli": "not soluble"}
{"sequence": "MIQPRIRQNPFETYEEVAEGFEDLLAPLELFFDREYQGHLDLGTHGTVYSKGTRDAEAFLRPLWGLGPYVTQNESEYLNDFLTGIIEGTDPESSSYWGKTKDYDQLIVEMAALSTFLLLNKEKTWDQLTKEQQNNLHSWLIQANENIIPPNNWHFFRVLLNLAMKHCEMPYSKEQIAVDLAVIDRFYVGNGWYYDGVETQVDYYVSFAIHYYSLLYCRFAPEDTARVAIMKERATLFAQEFKYWFTQPGEAIPFGRSLTYRFAQVSFFSALVFADVEALPWGEIKGLISRHLHQWMNKDIFTTDGLLSVGYDYQNMVFAEGYNGPGSPYWAFKTFILLAVPKDHPYWQAETQPISFPEKHLPSPESRNYYQVNDAGTHGLMFPAGQFINYQAHAHDKYSKFVYSSHFGFSTIKSDYWYYEGAYDNCLALAEDDHYFRTKGLDDQYEILDDRIIHQWHPWSDVAIKTTIVPLEGQHLRIHEIETQRALVAYEGGFSIPLFDEKVTCVSDQMAEVKNAKGVSKVENINGFSEAAIIRTEPNTNLLYPLTELPYLKANLSKGKHLLISLVTGVLPNEQIEPVKVRLKENQLLVEEKVVILGN", "soluble on expression in E. coli": "soluble"}
{"sequence": "MIQVLGTSSGSGKTTIAMALSRIFFRSGYRVAPFKAVNMSLNSVIVEGEYEIARAQWLQAKAANTEPTRFMNPILLKPEGMGASQVIMLGKSLGKKTIPEYYEFIMNDGKRVIREAIDRISDDYDLIIAEGAGSPAEINLLDRDMANIYVSSIYNTPAILVGDIDRGGVFASIYGTLSLMPRPDLVRWIMINKMRGDASLLEPGLKKLENLTGKRVIGVVPYSENRLPGEDSFDYDHPRARGSKITIVRYPFMENYSDLDPLVYTSTGYNYVTAENASDLSDADLIVLPGSKNVFADLEYMRKNGIDKIIIENAGRAKILGICGGYQMLGQRITMGEISADGLGLLRAKTNYERTKTTRSVRYRVDNTLMSGTWEEGYEIHYGAVISLGGERMNETDKGPEGNVDANRLVFGTNIHGILANRSVFRFMTGRDIGEPEEYLRSEIDRFADVVKSSIDVADLIEYASSRE", "soluble on expression in E. coli": "not soluble"}
{"sequence": "MIRGWLAEGERMKETSYYSYVVGELPKGCQYCVRGEKLVLFVTGVCPRNCFYCPLSPWRRKDVAYANERPIRKIEDIIEEAKIQEARGAGVTGGDPLARLNRTVEYIRTLKEEFGKKFHIHLYTTGILADKRALSMLYDAGLDEIRFHPDLFEPSSKFLNREIENLKNAFDFDWDVGGEVPAVPGFGDRIKWFAEILDKFGGKFLNINELEYSETNLSNILNRGFKLAGENSFAIKGSLELGLEILEWGEKNTSLYYHLCTAKLKDAVQLRNRLRRMAKNVAKPYMEITEDGTLRFGIAEYEDLEELYKFLVEEAEVPKEWLYINWEKKRIEMPVEVAEELAEAIEGDVKFYIVEEYPTWDRIEVERIPLN", "soluble on expression in E. coli": "not soluble"}
{"sequence": "MIRKATWADAPAIASVHVESWKTTYSGIVPDAYLETLSVGEKQPLWEKVLSQSGHSVFVAEENGRVVGFVSGGPNRAADGPIAKYDGELYAIYLLKEVQGKGLGRQLVQALTRHLAQKGIHSLVVWVLADNPSRGFYERLGGEKVAEERVEIGGKALWEWCYELARRPIDGTVGGLPNRAAA", "soluble on expression in E. coli": "not soluble"}
{"sequence": "MIRKLDKAEFQQATTLALEVYLQCGQDDFEDEGLESFKSFIFNDKLMNELCIYGAFEENKLIGIMGTKNEGKHISLFFIKKEFHRKGIGKQLFDYSQCDCPANEITVNSSTYAIRFYESLGFEKTNDRQQTNGISYTPMKLISNKLEHHHHHH", "soluble on expression in E. coli": "soluble"}
{"sequence": "MIRLLTLLALLLPVPGWAGCRQALALGLDVSGSVDGREYRLQLDGLAAALLAPEVQARLLAMPGHPIRLAVYEWSEPGFQRLILPWHQIDTAADLETVAATLRTTRRAAAPPGTAIGPAMHHGAALLAQQPDCWKRTLDLSGDGKHNMGPHPRVVKAALEGSGLTVNALVIGADSTTFTDLRQTQIGELSAYYGAWVILGPDAFVEVALGYEDYQAAMERKLRRELEGLVLSALPTRAATQLHAPVLPWPVLPQAAALEHHHHHH", "soluble on expression in E. coli": "not soluble"}
{"sequence": "MIRPVDFQGFVVKGVESVQNVSQTLNQQTLVQQALSQHLLHQIQREQSSVKESNTAERAEVRTSTERRQRGFPQTRTHSSLKKKKTSIKEENKGLFMDVRTLEHHHHHH", "soluble on expression in E. coli": "not soluble"}
{"sequence": "MIRSMTAYARREIKGEWGSATWEMRSVNQRYLETYFRLPEQFRSLEPVVRERIRSRLTRGKVECTLRYEPDVSAQGELILNEKLAKQLVTAANWVKMKSDEGEINPVDILRWPGVMAAQEQDLDAIAAEILAALDGTLDDFIVARETEGQALKALIEQRLEGVTAEVVKVRAHMPEILQWQRERLVAKLEDAQVQLENNRLEQELVLLAQRIDVAEELDRLEAHVKETYNILKKKEAVGRRLDFMMQEFNRESNTLASKSINAEVTNSAIELKVLIEQMREQIQNIE", "soluble on expression in E. coli": "not soluble"}
{"sequence": "MISDIRKDAEVRMDKCVEAFKTQISKIRTGRASPSLLDGIVVEYYGTPTPLRQLASVTVEDSRTLKINVFDRSMSPAVEKAIMASDLGLNPNSAGSDIRVPLPPLTEERRKDLTKIVRGEAEQARVAVRNVRRDANDKVKALLKDKEISEDDDRRSQDDVQKLTDAAIKKIEAALADKEAELMQF", "soluble on expression in E. coli": "soluble"}
{"sequence": "MISHCRRLLATTTALVIASTAIAAAEPSAELIAAAKKEGMLTTVALPHDWCGYGDVIAAFKAKYPEITVNELNPDAGSADEVEAVKANKDNKGPQAPDVVDVGLAFGPQMKAEGLLQPYKVSTWAEIPDNVKDADGYWYGDYYGVMSMFVNKDLVKNVPKDWADLLKPEYSGQVALAGDPRASNQAILGVLAAGLSTGAKSGKEAGEAGLKYFADLNKAGNFLPVIGKAGTLAQGATPIIVAWDYNALSWKKTLNDNPPTEVVVPEKGVLAGVYVQGISAYAPHPNAAKLWMEHLYSDDGQLGWLKGYCHPIRFNAMVKAGKVPQELIDSLPPAAAYEKAIFPTLEEVDANKAAVTGGWDKVVGANVK", "soluble on expression in E. coli": "not soluble"}
{"sequence": "MISIPKDEFQQIFVKDLMISSEKVAHVQIGNGLEHALLVLVKSGYSAIPVLDPMYKLHGLISTAMILDGILGLERIEFERLEEMKVEQVMKQDIPVLKLEDSFAKALEMTIDHPFICAVNEDGYFEGILTRRAILKLLNKKVRQHNR", "soluble on expression in E. coli": "not soluble"}
{"sequence": "MISIVIPLYNQVAYTQLCVQSLRRAGLNGVDVLLIDNGSTDGTAEYLKSCSDLRVIRNRENLGCAGAWNQGVRETTSEWVMILNNDVVVSPGWLDGLLEAAGKEGLDVVSPAIREGEYNYDIEGYSQEFVGRMGDVVRRGVADGICFMVRRRVFEVVGLFDENFRIGQFEDADFFRRARNAGFRLGTTGRSFIHHFGSVTQDAIRKNRPERPYVAENRAYFREKWQLTRGRRLIERWRRKLREFAWQKCERMFHGHTLKEKWLGGRLRYYLEHHHHHH", "soluble on expression in E. coli": "not soluble"}
{"sequence": "MISMKPRYKPDWESLREHTVPKWFDKAKFGIFIHWGIYSVPGWATPTGELGKVPMDAWFFQNPYAEWYENSLRIKESPTWEYHVKTYGENFEYEKFADLFTAEKWDPQEWADLFKKAGAKYVIPTTKHHDGFCLWGTKYTDFNSVKRGPKRDLVGDLAKAVREAGLRFGVYYSGGLDWRFTTEPIRYPEDLSYIRPNTYEYADYAYKQVMELVDLYLPDVLWNDMGWPEKGKEDLKYLFAYYYNKHPEGSVNDRWGVPHWDFKTAEYHVNYPGDLPGYKWEFTRGIGLSFGYNRNEGPEHMLSVEQLVYTLVDVVSKGGNLLLNVGPKGDGTIPDLQKERLLGLGEWLRKYGDAIYGTSVWERCCAKTEDGTEIRFTRKCNRIFVIFLGIPTGEKIVIEDLNLSAGTVRHFLTGERLSFKNVGKNLEITVPKKLLETDSITLVLEAVEEHHHHHH", "soluble on expression in E. coli": "soluble"}
